Molecular target: Flag-DHX9 recombinant protein (UniProt Q08211 1-1270)
Experiment: pull-down

Sequence of Flag-DHX9 recombinant protein (Q08211 whole entry): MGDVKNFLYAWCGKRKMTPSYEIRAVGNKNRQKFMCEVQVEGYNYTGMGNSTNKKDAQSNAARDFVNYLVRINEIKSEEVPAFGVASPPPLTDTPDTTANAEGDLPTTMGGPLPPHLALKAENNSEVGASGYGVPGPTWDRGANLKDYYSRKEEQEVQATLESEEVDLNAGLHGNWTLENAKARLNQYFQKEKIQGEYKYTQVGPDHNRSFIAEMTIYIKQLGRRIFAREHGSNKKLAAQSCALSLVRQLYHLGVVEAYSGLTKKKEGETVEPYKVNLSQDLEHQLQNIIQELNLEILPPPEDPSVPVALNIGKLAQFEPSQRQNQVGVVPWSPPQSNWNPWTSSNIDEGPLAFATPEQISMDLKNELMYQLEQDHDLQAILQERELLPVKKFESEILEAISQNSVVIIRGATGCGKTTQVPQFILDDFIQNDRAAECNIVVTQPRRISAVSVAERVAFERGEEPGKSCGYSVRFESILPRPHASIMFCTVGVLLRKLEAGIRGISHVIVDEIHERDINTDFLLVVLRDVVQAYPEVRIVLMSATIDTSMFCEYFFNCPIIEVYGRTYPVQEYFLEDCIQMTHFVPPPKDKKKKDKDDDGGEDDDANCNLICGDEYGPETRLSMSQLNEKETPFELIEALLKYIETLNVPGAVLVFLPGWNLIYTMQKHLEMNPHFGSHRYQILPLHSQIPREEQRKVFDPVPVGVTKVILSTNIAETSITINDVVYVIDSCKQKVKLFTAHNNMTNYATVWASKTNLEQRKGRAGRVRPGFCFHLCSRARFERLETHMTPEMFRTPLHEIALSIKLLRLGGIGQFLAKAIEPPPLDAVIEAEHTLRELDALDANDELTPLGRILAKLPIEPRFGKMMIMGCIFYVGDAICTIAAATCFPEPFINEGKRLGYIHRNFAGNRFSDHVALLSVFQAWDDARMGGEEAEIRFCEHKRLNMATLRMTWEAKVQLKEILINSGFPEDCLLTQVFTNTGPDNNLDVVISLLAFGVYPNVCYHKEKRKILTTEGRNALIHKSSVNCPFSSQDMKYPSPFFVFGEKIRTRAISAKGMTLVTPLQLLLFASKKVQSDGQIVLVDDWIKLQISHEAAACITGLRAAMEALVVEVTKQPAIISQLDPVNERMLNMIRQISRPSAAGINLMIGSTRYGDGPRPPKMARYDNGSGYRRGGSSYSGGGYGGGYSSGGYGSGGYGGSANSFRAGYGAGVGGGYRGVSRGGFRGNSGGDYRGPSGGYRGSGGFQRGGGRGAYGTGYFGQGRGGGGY

B1: GST-TDRD3 (natural protein)
chain: MAQVAGAALSQAGWYLSDEGIEACTSSPDKVNVNDIILIALNTDLRTIGKKFLPSDINSGKVEKLEGPCVLQIQKIRNVAAPKDNEESQAAPRMLRLQMTDGHISCTAVEFSYMSKISLNTPPGTKVKLSGIVDIKNGFLLLNDSNTTVLGGEVEHLIEKWELQRSLSKHNRSNIGTEGGPPPFVPFGQKCVSHVQVDSRELDRRKTLQVTMPVKPTNDNDEFEKQRTAAIAEVAKSKETKTFGGGGGGARSNLNMNAAGNRNREVLQKEKSTKSEGKHEGVYRELVDEKALKHITEMGFSKEASRQALMDNGNNLEAALNVLLTSNKQKPVMGPPLRGRGKGRGRIRSEDEEDLGNARPSAPSTLFDFLESKMGTLNVEEPKSQPQQLHQGQYRSSNTEQNGVKDNNHLRHPPRNDTRQPRNEKPPRFQRDSQNSKSVLEGSGLPRNRGSERPSTSSVSEVWAEDRIKCDRPYSRYDRTKDTSYPLGSQHSDGAFKKRDNSMQSRSGKGPSFAEAKENPLPQGSVDYNNQKRGKRESQTSIPDYFYDRKSQTINNEAFSGIKIEKHFNVNTDYQNPVRSNSFIGVPNGEVEMPLKGRRIGPIKPAGPVTAVPCDDKIFYNSGPKRRSGPIKPEKILESSIPMEYAKMWKPGDECFALYWEDNKFYRAEVEALHSSGMTAVVKFIDYGNYEEVLLSNIKPIQTEAWEEEGTYDQTLEFRRGGDGQPRRSTRPTQQFYQPPRARN
binding result: binds
